Source: the RNAGym collection of RNA variant scans (doi:10.1073/pnas.2313332121)

B1: TPR t1 (parent)
chain: GACCAAUCUGCCCUCAGAGCUCGAGAACAUCUUCGGAUGCAGAGGAGGCAGGCUUCGGUGGCGCGAUAGCGCCAACGUCCUCAACCUCCAAUGCAUCCCACCACAUGAUGAUGCCUGAAGAGCCUUGGUUUUUUG

Variants of: B1
Experiment: polymerase ribozyme fitness, log enrichment relative to wild type (log ratio); higher = more active; in vitro selection for triplet polymerase activity
Outline: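 Both subunits of a heterodimeric triplet polymerase ribozyme were given their own mutant library, built by PCR and transcribed. Each library was annealed with a biotinylated primer, the partner subunit and triplets, incubated frozen at −7 °C, and its extended constructs gel-excised, captured on streptavidin beads and amplified by RT-PCR, all in one round done in triplicate. Fitness is the logarithm of genotype enrichment relative to wild-type enrichment, with replicates averaged by inverse-variance weighting. That logarithm is base 2, and Illumina-sequenced genotypes needed ≥10 input reads and ≥1 read per output.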

Variant	polymerase ribozyme fitness (log ratio)
C22A C73U A83G C115A	-4.8
C20U G61C G93C	-3.53
C22A C82G U112G	-5.26
U21A A43U	-1.83
C20U G42A G71U C80U C82A U112C	-2.53
C22A C64U C114G G135U	-5.66
U21C G58C	-0.199
U21A G61C C114A	-2.8
U21G C88A	-1.66
U21C C72G C85A U116C	-3.42
U21A A50G A95G A105C	-3.34
C20U C102A	-3.26
C20U C102U	-2.92
U21C A27U	-4.9
U21A C22A A27C C89U C114U A121U	-3.32
U21C C72U G93A U96G	-2.4
U21G G52A C102A C124U	-2.14
C20U G63U A118G U132A	-2.9
C20U U33G C123U	-6.12
C22A C56A	-3.44
C22A A111C A119U	-6.95

Variant	polymerase ribozyme fitness (log ratio)
C22A C123A	-4.13
C20U G60U U78A G113C	-2.3
C22A G120A	-4.53
C20U C86A	-2.3
U21A U54C G93C	-1.26
U21A G63U	-1.92
C22G A27C C56G G120C	-4.73
C22A A66C G69U G93C	-5.35
U21A A43U C72U U129A	-3.56
U21G C97G U112G	-5.7
U21C G71U	-0.75
U21G C56A C70U C89A G113U	-3.69
U21G C72U A75U	-1.05
U21A C70A	-3.21
C22G A26C C31G G45U G60U	-8.09
C20U G60C	-1.73
U21A C72G G77C C85A	-3.48
U21C G57U	-0.235
C22A C79U U87A	-4.8
U21C A121C	1.32
C20U G45C	-3.07

Variant	polymerase ribozyme fitness (log ratio)
U21C C72U	-0.489
U21G A37G G61A G135U	-2.33
C20U G45A C53G	-1.22
U21C G63C G120A	-0.168
C20U C73A A95U U106A G122A	-4.57
U21G G39C A41G C115A	-2
C20U G93A C101G G113C	-4.09
C22A A119G	-3.88
C20U U92A	-4.08
U21A C89G	-2.25
U21A A50C A68G	-6.32
C20U G117U A119U	-4.12
U21C C62U A83U U87G	0.103
C22G A29C A84C	-3.73
C22A C124A U134C	-4.93
U21A A29G A43U C56G A83C A91C G120U	-5.54
U21C G36U C64U	-0.911
U21A A95G G117U	-1.3
U21A G42U G63C C82A	-3.34
U21A U81A	-1.49
C22A U78C	-6.19

Variant	polymerase ribozyme fitness (log ratio)
U21C C73A C89A	-2.96
C22A A27C C124A	-4.12
C20U G48U G57U G60A	-2.57
U21A C80U	-0.894
U21G G71U	-2.37
U21A C62G C73U	-2.55
C20U C85U	-2.85
U21G G120U C123A	-1.07
C20U G52U C72U	-3.02
U21A G39U C64U A91C	-2.67
U21G G47C C85G G93C A100U C101U	-5.69
U21A C97G	-4.44
C20U G61A C98A	-5.48
U21A C88G	-0.967
C20U G48A C53U C99U	-5.43
U21A A90C	-1.58
U21C G45A U59A G61A	-1.1
C22A U67C C80A U96A U109A	-6.8
U21A A74C C98A C114G U133G	-7.51
C22A C64U	-4.37
